Measurements published in US20240270846A1 (published 2024).

How the values were obtained:
[1] = biological target: T1, CD3 epsilon homodimer protein (UniProt P07766 23-126); experiment: SPR, CD3e homodimer on chip;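 also: surface plasmon resonance at 25 degrees C, antibodies flowed as analyte over CD3 epsilon homodimer amine-coupled to a CM4 chip, running buffer HBS-EP+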
T1 construct: also called CD3 (CD3 epsilon)
T1 sequence (P07766 23-126): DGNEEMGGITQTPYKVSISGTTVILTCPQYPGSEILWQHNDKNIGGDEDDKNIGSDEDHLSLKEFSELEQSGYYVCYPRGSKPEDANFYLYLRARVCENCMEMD
Description: (§1) An appropriate amount of CD3 epsilon homodimer protein was immobilized onto Sensor chip CM4 (GE Healthcare Japan Corp.) by the amine coupling method. Then, the antibody having an appropriate concentration was injected thereto as an analyte and allowed to interact with the CD3 epsilon homodimer protein on the sensor chip. Then, the sensor chip was regenerated by the injection of 10 mmol/L glycine-HCl (pH 1.5). The assay was conducted at 25 degrees C., and HBS-EP+(GE Healthcare Japan Corp.) was used as a running buffer. […] Each parameter was calculated using Biacore T200 Evaluation Software (GE Healthcare Japan Corp.).
(§2) Specifically, when the amount of the GLS3000-containing antibody bound was defined as X and the amount of the L chain one-amino acid altered form bound was defined as Y, a value of Z (ratio of amounts bound)=Y/X was used.

[2] = biological target: T2, CD3 epsilon homodimer protein (UniProt P07766 23-126); experiment: SPR (Biacore T200), CD3e homodimer on CM4 chip, antibody as analyte; KD ratio vs unaltered GLS3000;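 also: CD3 epsilon homodimer amine-coupled to the sensor surface, antibodies injected as analyte at 25 °C with HBS-EP+ running buffer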
T2 construct: also called CD3 (CD3 epsilon)
T2 sequence (P07766 23-126): as above
Description: as §1, §2

| Binder | ratio of amounts bound (altered form / unaltered GLS3000 antibody) [1] | KD ratio to GLS3000 [2] [ratio] |
| --- | --- | --- |
| GLS3000 H27dA one-arm antibody (H chain CE115HA000) (antibody, human IgG1, kappa, L234A L235A, N297A, name in Kabat numbering, one-arm antibody) heavy: QVQLVESGGGVVQPGRSLRLSCAASGFTFSNAWMHWVRQAPGKGLEWVAQIKAKSNNYATYYAESVKGRFTISRDDSKNSLYLQMNSLKTEDTAVYYCRYVHYGAYYGVDAWGQGTTVTVSSASTKGPSVFPLAPSSKSTSGGTAALGCLVKDYFPEPVTVSWNSGALTSGVHTFPAVLQSSGLYSLSSVVTVPSSSLGTQTYICNVNHKPSNTKVDKKVEPKSCDKTHTCPPCPAPEAAGGPSVFLFPPKPKDTLMISRTPEVTCVVVDVSHEDPEVKFNWYVDGVEVHNAKTKPREEQYASTYRVVSVLTVLHQDWLNGKEYKCKVSNKALPAPIEKTISKAKGQPREPQVYTLPPSRCELTKNQVSLSCAVKGFYPSDIAVEWESNGQPENNYKTTPPVLDSDGSFFLVSKLTVDKSRWQQGNVFSCSVMHEALHNHYTQKSLSLSPDYKDDDDK EPKSSDKTHTCPPCPAPELLGGPSVFLFPPKPKDTLMISRTPEVTCVVVDVSHEDPEVKFNWYVDGVEVHNAKTKPREEQYNSTYRVVSVLTVLHQDWLNGKEYKCKVSNKALPAPIEKTISKAKGQPREPQVCTLPPSRDELTKNQVSLWCLVKGFYPSDIAVEWESNGQPENNYKTTPPVLDSDGSFFLYSKLTVDKSRWQQGNVFSCSVMHEALHNRYTQKSLSLSP light: DIVMTQSPLSLPVTPGEPASISCRSSQSLVASNRNTYLHWYQQKPGQAPRLLIYKVSNRFSGVPDRFSGSGSGTDFTLKISRVEAEDVGVYYCGQGTQVPYTFGQGTKLEIKRTVAAPSVFIFPPSDEQLKSGTASVVCLLNNFYPREAKVQWKVDNALQSGNSQESVTEQDSKDSTYSLSSTLTLSKADYEKHKVYACEVTHQGLSSPVTKSFNRGEC | 0.48 |  |
| CE115HA000/GLS3000 Y96L one-arm antibody (antibody, human IgG1, kappa, L234A L235A, N297A, name in Kabat numbering, one-arm IgG1) heavy: QVQLVESGGGVVQPGRSLRLSCAASGFTFSNAWMHWVRQAPGKGLEWVAQIKAKSNNYATYYAESVKGRFTISRDDSKNSLYLQMNSLKTEDTAVYYCRYVHYGAYYGVDAWGQGTTVTVSSASTKGPSVFPLAPSSKSTSGGTAALGCLVKDYFPEPVTVSWNSGALTSGVHTFPAVLQSSGLYSLSSVVTVPSSSLGTQTYICNVNHKPSNTKVDKKVEPKSCDKTHTCPPCPAPEAAGGPSVFLFPPKPKDTLMISRTPEVTCVVVDVSHEDPEVKFNWYVDGVEVHNAKTKPREEQYASTYRVVSVLTVLHQDWLNGKEYKCKVSNKALPAPIEKTISKAKGQPREPQVYTLPPSRCELTKNQVSLSCAVKGFYPSDIAVEWESNGQPENNYKTTPPVLDSDGSFFLVSKLTVDKSRWQQGNVFSCSVMHEALHNHYTQKSLSLSPDYKDDDDK EPKSSDKTHTCPPCPAPELLGGPSVFLFPPKPKDTLMISRTPEVTCVVVDVSHEDPEVKFNWYVDGVEVHNAKTKPREEQYNSTYRVVSVLTVLHQDWLNGKEYKCKVSNKALPAPIEKTISKAKGQPREPQVCTLPPSRDELTKNQVSLWCLVKGFYPSDIAVEWESNGQPENNYKTTPPVLDSDGSFFLYSKLTVDKSRWQQGNVFSCSVMHEALHNRYTQKSLSLSP light: DIVMTQSPLSLPVTPGEPASISCRSSQSLVHSNRNTYLHWYQQKPGQAPRLLIYKVSNRFSGVPDRFSGSGSGTDFTLKISRVEAEDVGVYYCGQGTQVPLTFGQGTKLEIKRTVAAPSVFIFPPSDEQLKSGTASVVCLLNNFYPREAKVQWKVDNALQSGNSQESVTEQDSKDSTYSLSSTLTLSKADYEKHKVYACEVTHQGLSSPVTKSFNRGEC |  | 1.84 |

More lines, now with the values ahead:

| ratio of amounts bound (altered form / unaltered GLS3000 antibody) [1] | KD ratio to GLS3000 [2] [ratio] | Binder |
| --- | --- | --- |
| 1.13 |  | GLS3000 F55A one-arm antibody (H chain CE115HA000) (antibody, human IgG1, kappa, L234A L235A, N297A, name in Kabat numbering, one-arm antibody) heavy: QVQLVESGGGVVQPGRSLRLSCAASGFTFSNAWMHWVRQAPGKGLEWVAQIKAKSNNYATYYAESVKGRFTISRDDSKNSLYLQMNSLKTEDTAVYYCRYVHYGAYYGVDAWGQGTTVTVSSASTKGPSVFPLAPSSKSTSGGTAALGCLVKDYFPEPVTVSWNSGALTSGVHTFPAVLQSSGLYSLSSVVTVPSSSLGTQTYICNVNHKPSNTKVDKKVEPKSCDKTHTCPPCPAPEAAGGPSVFLFPPKPKDTLMISRTPEVTCVVVDVSHEDPEVKFNWYVDGVEVHNAKTKPREEQYASTYRVVSVLTVLHQDWLNGKEYKCKVSNKALPAPIEKTISKAKGQPREPQVYTLPPSRCELTKNQVSLSCAVKGFYPSDIAVEWESNGQPENNYKTTPPVLDSDGSFFLVSKLTVDKSRWQQGNVFSCSVMHEALHNHYTQKSLSLSPDYKDDDDK EPKSSDKTHTCPPCPAPELLGGPSVFLFPPKPKDTLMISRTPEVTCVVVDVSHEDPEVKFNWYVDGVEVHNAKTKPREEQYNSTYRVVSVLTVLHQDWLNGKEYKCKVSNKALPAPIEKTISKAKGQPREPQVCTLPPSRDELTKNQVSLWCLVKGFYPSDIAVEWESNGQPENNYKTTPPVLDSDGSFFLYSKLTVDKSRWQQGNVFSCSVMHEALHNRYTQKSLSLSP light: DIVMTQSPLSLPVTPGEPASISCRSSQSLVHSNRNTYLHWYQQKPGQAPRLLIYKVSNRASGVPDRFSGSGSGTDFTLKISRVEAEDVGVYYCGQGTQVPYTFGQGTKLEIKRTVAAPSVFIFPPSDEQLKSGTASVVCLLNNFYPREAKVQWKVDNALQSGNSQESVTEQDSKDSTYSLSSTLTLSKADYEKHKVYACEVTHQGLSSPVTKSFNRGEC |
| 0.65 |  | GLS3000 F55D one-arm antibody (H chain CE115HA000) (antibody, human IgG1, kappa, L234A L235A, N297A, name in Kabat numbering, one-arm antibody) heavy: QVQLVESGGGVVQPGRSLRLSCAASGFTFSNAWMHWVRQAPGKGLEWVAQIKAKSNNYATYYAESVKGRFTISRDDSKNSLYLQMNSLKTEDTAVYYCRYVHYGAYYGVDAWGQGTTVTVSSASTKGPSVFPLAPSSKSTSGGTAALGCLVKDYFPEPVTVSWNSGALTSGVHTFPAVLQSSGLYSLSSVVTVPSSSLGTQTYICNVNHKPSNTKVDKKVEPKSCDKTHTCPPCPAPEAAGGPSVFLFPPKPKDTLMISRTPEVTCVVVDVSHEDPEVKFNWYVDGVEVHNAKTKPREEQYASTYRVVSVLTVLHQDWLNGKEYKCKVSNKALPAPIEKTISKAKGQPREPQVYTLPPSRCELTKNQVSLSCAVKGFYPSDIAVEWESNGQPENNYKTTPPVLDSDGSFFLVSKLTVDKSRWQQGNVFSCSVMHEALHNHYTQKSLSLSPDYKDDDDK EPKSSDKTHTCPPCPAPELLGGPSVFLFPPKPKDTLMISRTPEVTCVVVDVSHEDPEVKFNWYVDGVEVHNAKTKPREEQYNSTYRVVSVLTVLHQDWLNGKEYKCKVSNKALPAPIEKTISKAKGQPREPQVCTLPPSRDELTKNQVSLWCLVKGFYPSDIAVEWESNGQPENNYKTTPPVLDSDGSFFLYSKLTVDKSRWQQGNVFSCSVMHEALHNRYTQKSLSLSP light: DIVMTQSPLSLPVTPGEPASISCRSSQSLVHSNRNTYLHWYQQKPGQAPRLLIYKVSNRDSGVPDRFSGSGSGTDFTLKISRVEAEDVGVYYCGQGTQVPYTFGQGTKLEIKRTVAAPSVFIFPPSDEQLKSGTASVVCLLNNFYPREAKVQWKVDNALQSGNSQESVTEQDSKDSTYSLSSTLTLSKADYEKHKVYACEVTHQGLSSPVTKSFNRGEC |
